{"source": "paper PMC10786891", "about": "“Massively parallel profiling of RNA-targeting CRISPR-Cas13d”", "data": [{"target": "T1, EsCas13d, nuclease-dead (Eubacterium siraeum, UniProt B0MS50, R295A;H300A;R849A;H854A)", "T1 sequence": "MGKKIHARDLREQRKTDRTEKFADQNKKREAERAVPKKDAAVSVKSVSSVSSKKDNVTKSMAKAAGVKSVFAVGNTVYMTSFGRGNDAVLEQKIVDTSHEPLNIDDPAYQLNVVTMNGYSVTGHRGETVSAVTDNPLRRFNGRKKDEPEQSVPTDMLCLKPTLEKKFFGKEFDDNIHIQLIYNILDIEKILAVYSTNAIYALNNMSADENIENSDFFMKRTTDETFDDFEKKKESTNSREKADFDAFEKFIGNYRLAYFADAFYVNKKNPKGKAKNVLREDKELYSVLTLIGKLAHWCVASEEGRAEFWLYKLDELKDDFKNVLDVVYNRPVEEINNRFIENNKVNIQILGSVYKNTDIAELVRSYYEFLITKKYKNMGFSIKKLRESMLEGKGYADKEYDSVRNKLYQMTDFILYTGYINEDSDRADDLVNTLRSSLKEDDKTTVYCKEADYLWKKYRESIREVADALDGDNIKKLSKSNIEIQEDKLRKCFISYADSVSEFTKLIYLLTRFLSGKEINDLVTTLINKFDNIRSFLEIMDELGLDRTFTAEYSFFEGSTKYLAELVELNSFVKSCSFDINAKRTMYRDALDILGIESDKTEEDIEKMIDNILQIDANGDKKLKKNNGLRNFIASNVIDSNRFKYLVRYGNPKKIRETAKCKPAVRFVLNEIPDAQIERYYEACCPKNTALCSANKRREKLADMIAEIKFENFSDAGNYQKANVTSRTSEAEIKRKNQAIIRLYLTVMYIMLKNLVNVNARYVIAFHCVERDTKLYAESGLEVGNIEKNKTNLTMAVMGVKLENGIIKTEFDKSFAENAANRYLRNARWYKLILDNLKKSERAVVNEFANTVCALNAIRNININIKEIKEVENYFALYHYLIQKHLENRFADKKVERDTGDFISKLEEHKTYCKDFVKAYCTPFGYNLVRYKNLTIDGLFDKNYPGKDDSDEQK", "assay": "crRNA (strand 1, pre-loaded); Mg2+; 40 mM Tris-HCl pH 7.5, 150 mM NaCl, 6 mM MgCl2, 1 mM DTT, 0.1% Tween-20, 0.2 mg/ml BSA; 25 C; 10 min per concentration, then washed", "settings": "tags: His6-TwinStrep-SUMO cleaved; N-terminal SNAP kept (SNAP-Surface 488); label: 3' end held by stalled T7 RNA polymerase", "units": {"Kd": "nM"}, "values": [{"binder": "target 1 MT 5'PFS GUG 3'PFS ACG (mixed) RNA 1: CACCCGUGCAAAAAUGCAGGGGUCUAAAACUGAGCGGAUAACCUCUCUAUGG RNA 2: GGGAAUGGAUCCACAUCUACGAAUUCGUGCCAUAGAGAGGUUAUCCGCUCAACGAGAUCGGAAGAGCACACGU", "Kd": "15.4 ± 1"}, {"binder": "target 1 MT 5'PFS GCU 3'PFS CUG (mixed) RNA 1: CACCCGUGCAAAAAUGCAGGGGUCUAAAACUGAGCGGAUAACCUCUCUAUGG RNA 2: GGGAAUGGAUCCACAUCUACGAAUUCGCUCCAUAGAGAGGUUAUCCGCUCACUGAGAUCGGAAGAGCACACGU", "Kd": "92 ± 34"}, {"binder": "target 1 MT 5'PFS GCU 3'PFS CUC (mixed) RNA 1: CACCCGUGCAAAAAUGCAGGGGUCUAAAACUGAGCGGAUAACCUCUCUAUGG RNA 2: GGGAAUGGAUCCACAUCUACGAAUUCGCUCCAUAGAGAGGUUAUCCGCUCACUCAGAUCGGAAGAGCACACGU", "Kd": "44 ± 14"}, {"binder": "target 1 MT 5'PFS GCU 3'PFS CUA (mixed) RNA 1: CACCCGUGCAAAAAUGCAGGGGUCUAAAACUGAGCGGAUAACCUCUCUAUGG RNA 2: GGGAAUGGAUCCACAUCUACGAAUUCGCUCCAUAGAGAGGUUAUCCGCUCACUAAGAUCGGAAGAGCACACGU", "Kd": "53 ± 22"}, {"binder": "target 1 MT 5'PFS AGC 3'PFS AUA (mixed) RNA 1: CACCCGUGCAAAAAUGCAGGGGUCUAAAACUGAGCGGAUAACCUCUCUAUGG RNA 2: GGGAAUGGAUCCACAUCUACGAAUUCAGCCCAUAGAGAGGUUAUCCGCUCAAUAAGAUCGGAAGAGCACACGU", "Kd": "56.5 ± 18.5"}, {"binder": "target 1 MT 5'PFS GCU 3'PFS CUU (mixed) RNA 1: CACCCGUGCAAAAAUGCAGGGGUCUAAAACUGAGCGGAUAACCUCUCUAUGG RNA 2: GGGAAUGGAUCCACAUCUACGAAUUCGCUCCAUAGAGAGGUUAUCCGCUCACUUAGAUCGGAAGAGCACACGU", "Kd": "26 ± 8"}, {"binder": "target 1 MT 5'PFS UUU 3'PFS CGU (mixed) RNA 1: CACCCGUGCAAAAAUGCAGGGGUCUAAAACUGAGCGGAUAACCUCUCUAUGG RNA 2: GGGAAUGGAUCCACAUCUACGAAUUCUUUCCAUAGAGAGGUUAUCCGCUCACGUAGAUCGGAAGAGCACACGU", "Kd": "~65"}, {"binder": "target 1 MT 5'PFS UGG 3'PFS ACG (mixed) RNA 1: CACCCGUGCAAAAAUGCAGGGGUCUAAAACUGAGCGGAUAACCUCUCUAUGG RNA 2: GGGAAUGGAUCCACAUCUACGAAUUCUGGCCAUAGAGAGGUUAUCCGCUCAACGAGAUCGGAAGAGCACACGU", "Kd": "54 ± 17.5"}, {"binder": "target 1 MT 5'PFS GGC 3'PFS AGA (mixed) RNA 1: CACCCGUGCAAAAAUGCAGGGGUCUAAAACUGAGCGGAUAACCUCUCUAUGG RNA 2: GGGAAUGGAUCCACAUCUACGAAUUCGGCCCAUAGAGAGGUUAUCCGCUCAAGAAGAUCGGAAGAGCACACGU", "Kd": "22.5 ± 5"}, {"binder": "target 1 MT 5'PFS UGG 3'PFS ACU (mixed) RNA 1: CACCCGUGCAAAAAUGCAGGGGUCUAAAACUGAGCGGAUAACCUCUCUAUGG RNA 2: GGGAAUGGAUCCACAUCUACGAAUUCUGGCCAUAGAGAGGUUAUCCGCUCAACUAGAUCGGAAGAGCACACGU", "Kd": "~120"}, {"binder": "target 1 insC 3' of 20,insC 3' of 20 (mixed) RNA 1: CACCCGUGCAAAAAUGCAGGGGUCUAAAACUGAGCGGAUAACCUCUCUAUGG RNA 2: GGGAAUGGAUCCACAUCUACGAAUUCGUACCACCUAGAGAGGUUAUCCGCUCACCGAGAUCGGAAGAGCACACGU", "Kd": "44.7 ± 3.1"}, {"binder": "target 1 MT 5'PFS CAG 3'PFS AAG (mixed) RNA 1: CACCCGUGCAAAAAUGCAGGGGUCUAAAACUGAGCGGAUAACCUCUCUAUGG RNA 2: GGGAAUGGAUCCACAUCUACGAAUUCCAGCCAUAGAGAGGUUAUCCGCUCAAAGAGAUCGGAAGAGCACACGU", "Kd": "28.5 ± 8"}, {"binder": "target 1 MT 5'PFS GCA 3'PFS ACU (mixed) RNA 1: CACCCGUGCAAAAAUGCAGGGGUCUAAAACUGAGCGGAUAACCUCUCUAUGG RNA 2: GGGAAUGGAUCCACAUCUACGAAUUCGCACCAUAGAGAGGUUAUCCGCUCAACUAGAUCGGAAGAGCACACGU", "Kd": "18.5 ± 4.5"}, {"binder": "target 1 MT 5'PFS CAA 3'PFS UAU (mixed) RNA 1: CACCCGUGCAAAAAUGCAGGGGUCUAAAACUGAGCGGAUAACCUCUCUAUGG RNA 2: GGGAAUGGAUCCACAUCUACGAAUUCCAACCAUAGAGAGGUUAUCCGCUCAUAUAGAUCGGAAGAGCACACGU", "Kd": "34.5 ± 15"}, {"binder": "target 1 MT 5'PFS AGU 3'PFS CCG (mixed) RNA 1: CACCCGUGCAAAAAUGCAGGGGUCUAAAACUGAGCGGAUAACCUCUCUAUGG RNA 2: GGGAAUGGAUCCACAUCUACGAAUUCAGUCCAUAGAGAGGUUAUCCGCUCACCGAGAUCGGAAGAGCACACGU", "Kd": "24.6 ± 7.6"}, {"binder": "target 1 MT 5'PFS CAA 3'PFS UAG (mixed) RNA 1: CACCCGUGCAAAAAUGCAGGGGUCUAAAACUGAGCGGAUAACCUCUCUAUGG RNA 2: GGGAAUGGAUCCACAUCUACGAAUUCCAACCAUAGAGAGGUUAUCCGCUCAUAGAGAUCGGAAGAGCACACGU", "Kd": "17 ± 6.5"}, {"binder": "target 1 MT 5'PFS GCA 3'PFS ACG (mixed) RNA 1: CACCCGUGCAAAAAUGCAGGGGUCUAAAACUGAGCGGAUAACCUCUCUAUGG RNA 2: GGGAAUGGAUCCACAUCUACGAAUUCGCACCAUAGAGAGGUUAUCCGCUCAACGAGAUCGGAAGAGCACACGU", "Kd": "19 ± 5.5"}, {"binder": "target 1 MT 5'PFS GCA 3'PFS CCG (mixed) RNA 1: CACCCGUGCAAAAAUGCAGGGGUCUAAAACUGAGCGGAUAACCUCUCUAUGG RNA 2: GGGAAUGGAUCCACAUCUACGAAUUCGCACCAUAGAGAGGUUAUCCGCUCACCGAGAUCGGAAGAGCACACGU", "Kd": "18.5 ± 8"}, {"binder": "target 1 MT 5'PFS CAA 3'PFS UAC (mixed) RNA 1: CACCCGUGCAAAAAUGCAGGGGUCUAAAACUGAGCGGAUAACCUCUCUAUGG RNA 2: GGGAAUGGAUCCACAUCUACGAAUUCCAACCAUAGAGAGGUUAUCCGCUCAUACAGAUCGGAAGAGCACACGU", "Kd": "7.65 ± 2.65"}, {"binder": "target 1 MT 5'PFS GGC 3'PFS CGC (mixed) RNA 1: CACCCGUGCAAAAAUGCAGGGGUCUAAAACUGAGCGGAUAACCUCUCUAUGG RNA 2: GGGAAUGGAUCCACAUCUACGAAUUCGGCCCAUAGAGAGGUUAUCCGCUCACGCAGAUCGGAAGAGCACACGU", "Kd": "15.5 ± 4"}, {"binder": "target 1 MT 5'PFS CAA 3'PFS UAA (mixed) RNA 1: CACCCGUGCAAAAAUGCAGGGGUCUAAAACUGAGCGGAUAACCUCUCUAUGG RNA 2: GGGAAUGGAUCCACAUCUACGAAUUCCAACCAUAGAGAGGUUAUCCGCUCAUAAAGAUCGGAAGAGCACACGU", "Kd": "18 ± 9"}, {"binder": "target 1 U10G,A16U (mixed) RNA 1: CACCCGUGCAAAAAUGCAGGGGUCUAAAACUGAGCGGAUAACCUCUCUAUGG RNA 2: GGGAAUGGAUCCACAUCUACGAAUUCGUACCAUAGUGAGGUGAUCCGCUCACCGAGAUCGGAAGAGCACACGU", "Kd": "58 ± 10"}, {"binder": "target 1 MT 5'PFS GGC 3'PFS CGA (mixed) RNA 1: CACCCGUGCAAAAAUGCAGGGGUCUAAAACUGAGCGGAUAACCUCUCUAUGG RNA 2: GGGAAUGGAUCCACAUCUACGAAUUCGGCCCAUAGAGAGGUUAUCCGCUCACGAAGAUCGGAAGAGCACACGU", "Kd": "22 ± 7"}, {"binder": "target 1 MT 5'PFS GUA 3'PFS GAU (mixed) RNA 1: CACCCGUGCAAAAAUGCAGGGGUCUAAAACUGAGCGGAUAACCUCUCUAUGG RNA 2: GGGAAUGGAUCCACAUCUACGAAUUCGUACCAUAGAGAGGUUAUCCGCUCAGAUAGAUCGGAAGAGCACACGU", "Kd": "12.5 ± 1.35"}]}]}
